The results in this text go back to the DeepSol protein solubility set.

A short description of the data set: soluble on expression in E. coli; label from the status in PepcDB or PDB records.
Turning to “MGSDKIHHHHHHMSEESIIVVGGGIAGLTGAALLSKEGYQVTLVEAHSQLGGCAGTFKRGSYTFDVGATQVAGLERGGIHHRLFNYLDIPLPDAKILDPGCSVTLGDGSRPINLWHDPLRWQKERQEQFPGSEIFWSLCSKIHESNWEFVERDPILPVRNFWDLSQLIRAIRPSNLLTGFLSKLTIADLLTITGCHKDRRLRSFLDLQLKLYSQEPASRTAALYGATVLQMAQSPRGLWHLHGSMQILSDLLKDSFLRDGGSLLIGHRVTKIIRKENSNVFDVKVLDRRKNLLQMKASDIVFSLPPQSLLDLIPIDGGLSTTYRESIKKLPKPSGAVVFYGALRRVDLPVDCPGHIQVFDEHFGSLFISISLENDQRAPIGMATLIASVFVDIDQWSNLDSQAYTRKKSVVSKQIRAILDHKFDLLETSWDHQELSTPRSFERWTGRPSGIVGGLGQHPDQFGPFGLSSRTPLKGLWLCGDSIYPGEGTAGVSQSALMVVRQLLESKGRHLNIPVFN”, the “soluble on expression in E. coli” value is recorded as “not soluble”. Then “MNTNMVASELGVSAKTVQRWVKQLNLPAERNELGHYSFTAEDVKVLKSVQKQISEGTAIQDIHLPKSAKKRTGFLVQKTSSDTERRIEQLEQKLDTLLQQRQDESELMARMSELERQLKQKADEGVSYQLLQHRREIDDILADLQSLTSQMKEFTAHSIPETAAASEKTKTRKKPLLSLFKFQTLEHHHHHH”, with “not soluble”; and “MALSTLNREVIKKNLQNEEYDVVIIGGGITGAGIALDASQRGMKVALVEMQDFAQGTSSRSTKLVHGGLRYLKQAQIKVVAETGKERAIVYENGPHVTTPEWMLLPMHKGGTFGKFTTNLGLTAYDRLAGVKKYERKKMLSKKQTLNKEPLVKKDGLKGGGYYVEYRTDDARLTIEVMKRAEENGAEILNHTKSTDFIYDSKSKVRGIEVQDLLTGEMYEINAKKVINAAGPWVDEVRKKDYTRNNKQLRLTKGVHVVIDQSKFPLRQAVYFDTEKDGRMIFAIPREGKAYVGTTDTFYDNDKTKPLTTQEDRDYLIDAINYMFPDVNVKDEDIESTWAGVRPLILEDGKDPSEISRKDEIWEGKSGLLTIAGGKLTGYRHMALEIVDLLAKRLKQEYKLTFAECKTKHTPISGGDVGGSANFESFVERKVEEGKAIGLQADVAKRLASKYGSNVDKLYNIAQIAQDKDLKLPLELYVELVYSVQNEMVFKPTDFLIRRSGKLYFNINEVKQYKDAVVEELAKLLNYTQSQQNEFTKEINIAIEEATRGNEQLAVLKLEHHHHHH”, with “soluble”; and “MVNRCFFFNRRICFMELFLLRHGKPDIRRSMAIRSVDMYSWIGEYDAAGILDSPDASTVAASEGKFIVSSPMPRALESVAALGLEPDIIIDELHEAPLPVFNIPLLKLTPLVWAALFRIFWMAGGSGGVETFSSVKIRAKLVSCELDKMAETHGSVLSVGHGFMNALVARELQKAGWKRQKVGPSGYWSGIKLVRLEHHHHHH”, with “soluble”. Consider “MITMTEVKGKTANESRVFKTSRVFPTDLNDHNTLFGGKILSEMDMVASISASRHSRKECVTASMDWVDFLHPVRSSDCVSYESFVIWTGRTSMEVFVKVVSEYLISGEKRIAATSFVTFVALSKENNPVPVPRVIPDTEEEKESHRIAVLRAEQRHIRKAESKKVATLLTF”, for which the “soluble on expression in E. coli” value is “soluble”. Take “MGSDKIHHHHHHAGVVVPKYTPSTENPGGPGEEPGDGLIDPAEPLDRGFMHLKGRELKSLNSISITGLNDGEKVILSTLAGLAARVTGDQVYINEGGPSSVWLKQMQNKYGIPVNTYNALAPLVQHYVETGVIKGYIVYTPYSEGQSHSINVATSLCGLLRGIAVPESLVDKVKAMGVTTELMDVRSYDEKWLYENYKDQLDKSLAADMKPEIFHHLRDYITMTNAFAFYDYNARRDWSWRTSILKDLDKGAYCFGYYDLDEWGMVNNASQLGVSMLPTDQAANLATLSSIYDTTGLKQRPATKEVVTEENVHYVTFLVSDGDNIAFNLWGQQGYMDHDLHGQFPLGYTISPSLYDLAPAALRWYYENSKEGDYFVAGPSGSSYIFPSKMSDADLDDYLAKLNEYVDKSGLNICNILDQKIMDNPKVYNKYLAQPNIDAIFYTGYGEKGDGRIKFSDNGKPVIEQRSVLWEGIDGGSNRGEESTVISQINSRSANPHSADGYTFVFVHCWTKNQQSIKTVIDGLNDNVRVVPVDQFVQLVKQNLGPK”: the “soluble on expression in E. coli” value is on record as “not soluble”. On to “GPGSMLDAATGKSKGFGFVLFDEEEKGAKAYKALNRKMTRACGHSFTLVIYPSNHNGKIFTEESNALYIRNIPISIGQEKMERFLRTFGNLIYFAMREDHYGNPVWVVYAEYETVDDAKNALAKLHGNNTYFHGSVPILAKFEDSDDAKKERRRRRDGMQTHDRTAGAFFRHRSATTRTLDRFTPLPRR”, for which the “soluble on expression in E. coli” value is recorded as “not soluble”. With “MSLRVIDSHTAGEPTRVVLDGGPDLGSGTLAERAARLEAEHLDFCASVMLEPRGHDAIIGALLVPPSDPACAAGVIYFNNLQNLGMCGHATIGLGVTLAHLGRIRPGRHRFETPVGVVEIDLIDANTVSVVNIESYRLAKDVTVEVEGVGPVTGDVAWGGNWFFMVKNSPIALTGANIRPLTDLTLKIRTALEKAGVTGKDGAWIDHIELFGPAEDPAAQSRNFVLCPGGAYDRSPCGTGCSAKMACLAADGALAPGQDYLQESVIGSTYKISYQPGPGGGVIPTITGQAFVTSDATLIFNPADPYRSGIRLEGHHHHHH”, the “soluble on expression in E. coli” value was “soluble”. With “MSLEEVIEQLREANEPVPVPLELPDEDQLVEIEEQLFINIPFVFKEFLLTVSDVVYGSLEPVTVTDPQSHTYLPEVCATAWDLGVPRELIPICQDGEDYYCVEEDGTVLLWSAEEELVTEESWESVWHWARDVWLESEGHHHHHH”, the “soluble on expression in E. coli” value is “soluble”. With “SEQHAQGADAVVDLNNELKTRREKLANLREQGIAFPNDFRRDHTSDQLHAEFDGKENEELEALNIEVAVAGRMMTRRIMGKASFVTLQDVGGRIQLYVARDDLPEGVYNEQFKKWDLGDILGAKGKLFKTKTGELSIHCTELRLLTKALRPLPDKFHGLQDQEARYRQRYLDLISNDESRNTFKVRSQILSGIRQFMVNRGFMEVETPMMQVIPGGAAARPFITHHNALDLDMYLRIAPELYLKRLVVGGFERVFEINRNFRNEGISVRHNPEFTMMELYMAYADYKDLIELTESLFRTLAQDILGKTEVTYGDVTLDFGKPFEKLTMREAIKKYRPETDMADLDNFDSAKAIAESIGIHVEKSWGLGRIVTEIFEEVAEAHLIQPTFITEYPAEVSPLARRNDVNPEITDRFEFFIGGREIGNGFSELNDAEDQAQRFLDQVAAKDAGDDEAMFYDEDYVTALEHGLPPTAGLGIGIDRMVMLFTNSHTIRDVILFPAMRPVK”, the “soluble on expression in E. coli” value was “soluble”. On to “MNYPVNPDLMPALMAVFQHVRTRIQSELDCQRLDLTPPDVHVLKLIDEQRGLNLQDLGRQMCRDKALITRKIRELEGRNLVRRERNPSDQRSFQLFLTDEGLAIHQHAEAIMSRVHDELFAPLTPVEQATLVHLLDQCLAAQPLEDI”, for which the “soluble on expression in E. coli” value is given as “soluble”. As to “MINKLDNLNEEVANQIFTVFQNSYKIEAQLIGTLNFPPLLRSAKDIENSKTLFYGFSENECLAAVIEIVLENKQLDINSLTVDPNYFRKGIANKLITYILDKFYFSEAIVETAVVNTPAINLYKKHGFVEFKRWIPSHGIEKLAMSVKATL”, the “soluble on expression in E. coli” value is reported as “not soluble”. “HHHSSGLTPRGSQMKKIAFGCDHVGFILKHEIVAHLVERGVEVIDKGTWSSERTDYPHYASQVALAVAGGEVDGGILICGTGVGISIAANKFAGIRAVVCSEPYSAQLSRQHNDTNVLAFGSRVVGLELAKMIVDAWLGAQYEGGRHQQRVEAITAIEQRRN”: the “soluble on expression in E. coli” value was “soluble”. Then “MSNTQAERSIIGMIDMFHKYTRRDDKIDKPSLLTMMKENFPNFLSACDKKGTNYLADVFEKKDKNEDKKIDFSEFLSLLGDIATDYHKQSHGAAPCSGGSQ”, with “not soluble”; and “MGSDKIHHHHHHMGARLKHYGWGREGEGMNEAEQAFVLGRYKAKFGRDSFDTVEVAHLDDIKLREPRIVPPKSLSEICAVDVYHRAAHAYGKSYPDYVRGMLGDYDAAPDVVAYPRDEAEIAAVMDWAGGAGAALTPFGGGSSVCGGVECRVDGNRHKAAVTLDLRHLGKVLEVDATSRAALIQGGAYGPALEAQLKPHNVTLRHFPQSFEYSTLGGWIATRSGGHYASLYTHIDDFVESVRVVTPRGVLETRRLPGSGAGPSPDRMFIGSEGILGVISAAWMRLQSRPRFRAGASVRFPSFFAAARAVRAVAQAGLYPSNCRILDPQEAYNTGAADGSVAIMVLAFESGDHPVEPWMARALECCADHGGIREEAEASSGHLEGAAGLWRNAFIRMPYAREFLTPAGLINDTFETSITWERFESFHDSVKTVTEQAILDATGIKGEVTCRFTHVYPDGPAPYFSFHALGRHGELLEQWQAIKDAASDALIAAGGTITHHHAVGRDHRKWYDRQRPDLFAVALRAAKRELDPQAMLNPGVLIDP”, with “not soluble”.

For “MYLQLLKPTLLRCSTRPSSSGAYTRSPIDQKWAAMAKKAMKGREADTLTWNTPEGIPIKPLYLRSDRDCDAQRSVELPGQFPFTRGPYPTMYTQRPWTIRQYAGFSTVEESNKFYKENIKAGQQGLSVAFDLATHRGYDSDNPRVFGDVGMAGVAVDSVEDMRQLFDGINLEKMSVSMTMNGAVVPVLAMYVVAAEEAGVSRKLLAGTIQNDILKEFMVRNTYIYPPEPSMRIIGDIFAYTSREMPKFNSISISGYHMQEAGADAVLEMAFTIADGIQYCETGLNAGLTIDAFAPRLSFFWGISMNFYMEIAKMRAARRLWANLIKERFSPKSDKSMMLRTHSQTSGWSLTEQDPYNNIIRTTIEAMASVFGGTQSLHTNSFDEALGLPTKFSARIARNTQIIIQEESGICNVADPWGGSYMMESLTDEIYEKALAVIKEIDELGGMAKAVASGMTKLKIEEAAAKKQARIDAGKDVIVGVNKYRLDHEQQVEVLKIDNAKVREEQCAKLNHIRATRDAEKAQKALDAITEGARGNGNLMELAIEAARARCTVGEISDAMEKVFNRHAAVNRLVSGAYKSEFGETSEMSQVLERVKSFADRDGRQPRIMVAKMGQDGHDRGAKVIATGFADLGFDVDVGPLFQTPLEAAQQAVDADVHVIGASSLAAGHLTLIPQLIGELKKLGRPDILVVAGGVIPPQDYKELYDAGVALVFGPGTRLPACANQILEKLEANLPEAPGKAASR”, the “soluble on expression in E. coli” value is “not soluble”.

Turning to “MGSSHHHHHHSSGLVPRGSHMGLQDYQRLHKESIEDPAKFFGSKATQFLNWSKPFDKVFIPDPKTGRPSFQNNAWFLNGQLNACYNCVDRHALKTPNKKAIIFEGDEPGQGYSITYKELLEEVCQVAQVLTYSMGVRKGDTVAVYMPMVPEAIITLLAISRIGAIHSVVFAGFSSNSLRDRINDGDSKVVITTDESNRGGKVIETKRIVDDALRETPGVRHVLVYRKTNNPSVAFHAPRDLDWATEKKKYKTYYPCTPVDSEDPLFLLYTSGSTGAPKGVQHSTAGYLLGALLTMRYTFDTHQEDVFFTAGDIGWITGHTYVVYGPLLYGCATLVFEGTPAYPNYSRYWDIIDEHKVTQFYVAPTALRLLKRAGDSYIENHSLKSLRCLGSVGEPIAAEVWEWYSEKIGKNEIPIVDTYWQTESGSHLVTPLAGGVTPMKPGSASFPFFGIDAVVLDPNTGEELNTSHAEGVLAVKAAWPSFARTIWKNHDRYLDTYLNPYPGYYFTGDGAAKDKDGYIWILGRVDDVVNVSGHRLSTAEIEAAIIEDPIVAECAVVGFNDDLTGQAVAAFVVLKNKSSWSTATDDELQDIKKHLVFTVRKDIGPFAAPKLIILVDDLPKTRSGKIMRRILRKILAGESDQLGDVSTLSNPGIVRHLIDSVKL”, the “soluble on expression in E. coli” value is listed as “soluble”. For the sequence “MDRVESLANQIFEDYKDYGVDRKEIVEKLRKLLIEFRVPENEAVRTIRNYIIREYGAPATVRRERITKIEEIKEPNKWVTVKAKVIQLWESSSPSIAQVGLIGDETGYIRFLVWTKAKKQPVDEGKSYIFRNVVVDDYGGVLRLNVTKISEIEEIEEDVKVKPPEELSEDVEVVGALVAIQQNSGLIQRCSVEGCNRVIKMGKCPEHGKTKAKDDLRIKGVLDDGYRTYEVIINEEGVESLTGINLEKAKKIAEETLDRGAVLTELKKMLLGKYLRVVGTATPRYLIAKHVEFFRPDIRKEIEKVKALLEEV”, the “soluble on expression in E. coli” value was “not soluble”.
